Measured values from patent US20220073604A1 (ARGENX BVBA, published 2022).
Several values for one entry are separate records, joined by “and”; a condition that tells them apart may be missing. Equal values may be shown once. One block for each molecule: values may come before it.

Legend:
[1] = target: human IL-6 (as added in the B9 and 7TD1 bioassays) (human) (UniProt P05231); assay: cell-based or functional assay
[2] = target: human IL-6 (as added in the B9 and 7TD1 bioassays) (human) (UniProt P05231)
[3] = target: T1, bacterially produced human IL-6 (human, UniProt P05231 30-212); assay: SPR; purified Fab; IL-6 coated on CM5 chip
T1 construct: also called bactIL-6; prokaryotic IL-6
Procedure: (§1) From the washing phase the off-rate (kd) was determined, while from the injection phase the on-rate (ka) was calculated using the concentration and off-rate as parameters.

[4] = target: T2, eukaryotically produced human IL-6 (human, UniProt P05231 30-212); assay: SPR; purified Fab; IL-6 coated on CM5 chip
T2 construct: also called eukIL-6; Euk IL-6
Procedure: as §1

[5] = target: T1, bacterially produced human IL-6; assay: SPR; purified Fab
[6] = target: T2, eukaryotically produced human IL-6; assay: SPR; purified Fab
cynomolgus monkey IL-6 [7] = target: T3, cynomolgus monkey IL-6 (cynomolgus monkey, UniProt P79341 28-212, limits assumed); assay: SPR; purified Fab
T3 construct: also called HIS-cyIL-6

[8] = target: T1, bacterially produced human IL-6; assay: SPR; purified Fab, 68 nM
[9] = target: T2, eukaryotically produced human IL-6; assay: SPR; purified Fab, 68 nM
cynomolgus monkey IL-6 [10] = target: T3, cynomolgus monkey IL-6; assay: SPR; purified Fab, 68 nM
[11] = target: T4, human IL-6 (as added in the B9 and 7TD1 bioassays) (human, UniProt P05231 30-212); assay: cell-based or functional assay
[12] = target: T4, human IL-6 (as added in the B9 and 7TD1 …); assay: cell-based or functional assay; remark: listed apart in the source
[13] = target: T4, human IL-6 (as added in the B9 and 7TD1 …); assay: cell-based or functional assay; remark: listed apart in the source
[14] = target: T1, bacterially produced human IL-6; assay: SPR; periplasmic fraction
Procedure: as §1

[15] = target: T2, eukaryotically produced human IL-6; assay: SPR; periplasmic fraction
Procedure: as §1

[16] = target: T1, bacterially produced human IL-6; assay: SPR; periplasmic fraction; ratio bact to euk IL-6
Procedure: as §1

[17] = target: T1, bacterially produced human IL-6; assay: SPR; purified Fab; remark: listed apart in the source
[18] = target: T2, eukaryotically produced human IL-6; assay: SPR; purified Fab; remark: listed apart in the source
human IL-6 [19] = target: T5, human IL-6 (human, UniProt P05231 30-212); assay: SPR; periplasmic fraction; average of the IL-6 channels; design: unit not given here
T5 construct: Used where the text says only IL-6 or human IL-6 (crystals: rh IL-6 from Immunotools; cell assays) and for values averaged over the bacterial and eukaryotic IL-6 channels; also called interleukin-6; rh IL-6

[20] = target: T1, bacterially produced human IL-6; assay: SPR; purified Fab; ratio bact to euk IL-6
[21] = target: T1, bacterially produced human IL-6; assay: SPR; purified Fab over biotinylated IL-6 on streptavidin chip
Procedure: as §1

[22] = target: T6, bacterially produced cynomolgus monkey IL-6 (cynomolgus monkey, UniProt P79341 28-212, limits assumed); assay: off-rate of Fab 111A7 variant on bact-cy IL-6 (binding kinetics, SPR presumed; n = 2)
T6 construct: also called bact-cy IL-6; HIS-cyIL-6

[23] = target: IL-6 (bact-hIL-6, euk-hIL-6 and bact-cy IL-6; 'average binding' of Table 21); assay: average binding level in the off-rate screen (unit not given; n = 2)
[24] = target: T6, bacterially produced cynomolgus monkey …; assay: off-rate of Fab 111A7 variant on bact-cy IL-6 (binding kinetics, SPR presumed; n = 5)
[25] = target: IL-6 (bact-hIL-6, euk-hIL-6 and bact-cy IL-6; 'average binding' of Table 21); assay: average binding level in the off-rate screen (unit not given; n = 5)
human IL-6 [26] = target: T5, human IL-6; assay: SPR; purified Fab; average of the IL-6 channels
[27] = target: bacterially produced human IL-6 (human) (UniProt P05231); assay: SPR; purified Fab; ratio bact to euk IL-6
[28] = target: eukaryotically produced human IL-6 (human) (UniProt P05231); assay: SPR (Biacore), purified Fab
[29] = target: bacterially produced human IL-6 (human) (UniProt P05231); assay: SPR (Biacore), purified Fab
[30] = target: IL-6 surfaces of Table 8 (Bact, euk, cyno), average; assay: SPR (Biacore), off-rate screen
[31] = target: eukaryotically produced human IL-6 (human) (UniProt P05231); assay: SPR; purified Fab
[32] = target: bacterially produced human IL-6 (human) (UniProt P05231); assay: SPR; purified Fab
[33] = target: T4, human IL-6 (as added in the B9 and 7TD1 …); assay: cell-based or functional assay; remark: listed apart in the source
human IL-6 [34] = target: T5, human IL-6; assay: comparison of affinities after VL shuffling

Molecule: CNTO136 (benchmark anti-IL-6 antibody, humanized variant of CNTO328)
IC50, 7TD1 cells [1]: 0.19 pM | Potency relative to 68F2, 7TD1 cells [1]: 3.49 | IC50 (read off the curve), B9 cell proliferation [2]: 0.2 pM

Kd [3]: 43000 pM | koff [3]: 0.0012 s⁻¹ | Kd [4]: 6000 pM | koff [4]: 0.00072 s⁻¹ | Kd [5]: 43000 pM | koff [5]: 0.0012 s⁻¹ | Kd [6]: 6000 pM | koff [6]: 0.00072 s⁻¹ | Kd (cynomolgus monkey IL-6 [7]): 620 pM | koff (cynomolgus monkey IL-6 [7]): 0.0007 s⁻¹ | Kd [8]: 19000 pM | koff [8]: 0.00088 s⁻¹ | Kd [9]: 14000 pM | koff [9]: 0.00077 s⁻¹ | Kd (cynomolgus monkey IL-6 [10]): 14000 pM | koff (cynomolgus monkey IL-6 [10]): 0.00078 s⁻¹
B1: Fab 17F10 (Fab, V domains shown)
VH: EVQLQESGPGLVKPSQTLSLTCTVSGGSIATSYYAWSWIRQPPGKGLEWMGVIDYDGDTYYKPSLKSRTSISRDTSKNQFSLQLSSVTPEDTAVYYCARAGLGDSYYLGTYYAMDYWGKGTLVTVSS
VL: QAGLTQPPSVSGSPGKTVTISCAGTTSDVGTGNFVSWYQQLPGMAPKLLIYDVNKRASGIADRFSGSKSGNTASLTISGLQSEDEADYYCASYRSLNNVVFGGGTHLTVLG
notes: Fab; also called 17F10 pur Fab 68 nM

B2: 61H7 (antibody, V domains shown)
VH: EVQLVESGGGLVQPGGSLRLSCAASGFTFSSYRMYWVRQPPGKGLEWVSAISAGGGSTYYGDSVKGRFTISRDNAKNTVYLQMNSLKPEDTAVYYCANRAGWGMGDYWGQGTQVTVSS
VL: QTVVTQEPSLSVSPGGTVTLTCGLSSGSVTASNYPGWFQQTPGQAPRALIYSTNDRHSGVPSRFSGSISGNKAALTITGAQPEDEADYYCALDIGDITEFGGGTHLTVLG
IC50, 7TD1 cells (batch A8.11) [11]: 3.48 pM | Potency relative to 68F2, 7TD1 cells (batch A8.11) [11]: 0.19 | IC 50, B9 cell proliferation (batch 12.8) [12]: 1.83 pM | IC 50, B9 cell proliferation (batch A8.11) [12]: 1.57 pM | IC50 (read off the curve), B9 cell proliferation [13]: ~1 pM

koff [14]: 0.000183 s⁻¹ | koff [15]: 0.000144 s⁻¹ | ratio bact/euk [16]: 1.09 | koff [17]: 0.000143 s⁻¹ | koff [18]: 0.000125 s⁻¹ | Kd [3]: 1200 pM | koff [3]: 0.00019 s⁻¹ | Kd [4]: 850 pM | koff [4]: 0.00017 s⁻¹ | average binding (human IL-6 [19]): 167 | ratio bact/euk [20]: 1.14 | Ka [21]: 3.7e+09 M⁻¹ | Kd [21]: 270 pM | koff [21]: 1.69e-05 s⁻¹ | kon [21]: 62700 M⁻¹ s⁻¹
B3: Fab 24D10 (Fab, V domains shown)
VH: QLQVVESGGGLVQPGGSLRLSCAASGFTFSSYAMSWVRQAPGKGPEWVSRISSGGGSTSYADSVKGRFTISRDNAKNTLYLQMNSLKPEDTAVYYCANRAGWGMGDYWGQGTQVTVSS
VL: QTVVTQEPSLSVSPGGTVTLTCGLSSGSVTASNYPGWFQQTPGQAPRALIYSTNDRHSGVPSRFSGSISGNKAALTITGAQPEDEADYYCALDIGDITEFGGGTHLTVLG
notes: Fab; also called pur24d10; 28f12(24D10)

koff [17]: 4.22e-05 s⁻¹ | koff [18]: 3.68e-05 s⁻¹ | ratio bact/euk [20]: 1.13
B4: Fab 61H7 (Fab, V domains shown)
VH: EVQLVESGGGLVQPGGSLRLSCAASGFTFSSYRMYWVRQPPGKGLEWVSAISAGGGSTYYGDSVKGRFTISRDNAKNTVYLQMNSLKPEDTAVYYCANRAGWGMGDYWGQGTQVTVSS
VL: QTVVTQEPSLSVSPGGTVTLTCGLSSGSVTASNYPGWFQQTPGQAPRALIYSTNDRHSGVPSRFSGSISGNKAALTITGAQPEDEADYYCALDIGDITEFGGGTHLTVLG
notes: Fab; also called pur61H7; 61H7 Fab

koff [22]: 0.000144 s⁻¹ | average binding [23]: 130
B5: Fab 111A7 with the CDR3 methionine changed to T (Fab, V domains shown)
VH: EVQLLESGGGLVQPGGSLRLSCAASGFTFSSYAMSWVRQAPGKGPEWVSRISAGGGSTYYGDSVKGRFTISRDNSKNTLYLQMNSLRAEDTAVYYCANRAGWGTGDYWGQGTLVTVSS
VL: QTVVTQEPSFSVSPGGTVTLTCGLSSGSVTASNYPGWYQQTPGQAPRALIYSTNDRHSGVPDRFSGSISGNKAALTITGAQAEDEADYYCALDIGDITEFGGGTQLTVL

koff [22]: 0.000242 s⁻¹ | average binding [23]: 163
B6: Fab 111A7 with the CDR3 methionine changed to V (Fab, V domains shown)
VH: EVQLLESGGGLVQPGGSLRLSCAASGFTFSSYAMSWVRQAPGKGPEWVSRISAGGGSTYYGDSVKGRFTISRDNSKNTLYLQMNSLRAEDTAVYYCANRAGWGVGDYWGQGTLVTVSS
VL: QTVVTQEPSFSVSPGGTVTLTCGLSSGSVTASNYPGWYQQTPGQAPRALIYSTNDRHSGVPDRFSGSISGNKAALTITGAQAEDEADYYCALDIGDITEFGGGTQLTVL

koff [24]: 0.000899 s⁻¹ | average binding [25]: 66
B7: Fab 111A7 with the CDR3 methionine changed to P (Fab, V domains shown)
VH: EVQLLESGGGLVQPGGSLRLSCAASGFTFSSYAMSWVRQAPGKGPEWVSRISAGGGSTYYGDSVKGRFTISRDNSKNTLYLQMNSLRAEDTAVYYCANRAGWGPGDYWGQGTLVTVSS
VL: QTVVTQEPSFSVSPGGTVTLTCGLSSGSVTASNYPGWYQQTPGQAPRALIYSTNDRHSGVPDRFSGSISGNKAALTITGAQAEDEADYYCALDIGDITEFGGGTQLTVL

average binding (human IL-6 [26]): 207 | ratio bact/euk [27]: 1.05 | Kd [28]: 220 pM | koff [28]: 7.7e-05 s⁻¹ | kon [28]: 360000 M⁻¹ s⁻¹ | Kd [29]: 280 pM | koff [29]: 7.7e-05 s⁻¹ | kon [29]: 280000 M⁻¹ s⁻¹ | Average binding (RU) [30]: 338 RU and 340 RU and 347 RU | koff [31]: 8.59e-05 s⁻¹ | koff [32]: 9.41e-05 s⁻¹
B8: BE8-Fab (Fab, from another filing, V domains shown)
VH: QVTLKESGPGILKPSQTLSLTCSFSGFSLSTSGMGVGWIRQPSGKGLEWLAHIWWDDDKYYNPSLKSQLTISKDTSRNQVFLKITSVDTADTATYYCARSYDDYLYYALDYWGQGTSVTVSS
VL: DIVMTQSPATLSVTPGDRVSLSCRASQSISDYLHWYQQKSHESPRLLIKSVSQSISGIPSRFSGSGSGSDFTLSINSVEPEDVGVYYCQNGHSFPLTFGAGTKLELK

B9: 129D3 (germlined variant of 68F2), full-length IgG1 (antibody, V domains shown)
VH: EVQLQESGPGLVKPSQTLSLTCTVSGGSITSRYYAWSWIRQPPGKGLEWIGVIDYDGDTYYSPSLKSRVSISWDTSKNQFSLKLSSVTPADTAVYYCARDPDVVTGFHYDYWGQGTMVTVSS
VL: QSALTQPPSVSGTPGQSVTISCAGANNDIGTYAYVSWYQQLPGTAPKLMIYKVTTRASGIPDRFSGSKSGNTASLTISGLQAEDEADYYCASYRNFNNAVFGTGTKLTVL
IC50, 7TD1 cells (129D3#A1.1) [11]: 0.25 pM | IC50, 7TD1 cells (129D3U#15.1) [11]: 0.23 pM | Potency relative to 68F2, 7TD1 cells (129D3#A1.1) [11]: 2.65 | Potency relative to 68F2, 7TD1 cells (129D3U#15.1) [11]: 2.91 | IC50, 7TD1 proliferation assay, exp 22.06 [33]: 0.791 pM | IC50, 7TD1 proliferation assay, exp 29.06 [33]: 0.574 pM | Rel. Potency, 7TD1, exp 29.06 [33]: 0.98 | IC50 (read off the curve), B9 cell proliferation [13]: ~0.06 pM

fold affinity against parental 20A4 (human IL-6 [34]): 10 fold | koff [5]: 8e-05 s⁻¹ | koff [6]: 3.3e-05 s⁻¹
B10: Fab 68F2 (Fab, V domains shown)
VH: EVQLQESGPGLVKPSQTLSLTCTVSGGSITTRYYAWSWIRQPPGKGLEWMGVIDYDGDTYYSPSLKSRTSISWDTSKNQFSLQLSSVTPEDTAVYYCARDPDVVTGFHYDYWGQGTQVTVSS
VL: QSALTQPPLVSGTPGQTVTISCAGANNDIGTYAYVSWYQQLPGTAPKLLIYKVTTRASGIPSRFSGSKSGNTASLTISGLQSEDEADYYCASYRNFNNAVFGRGTHLTVLG
notes: VL-shuffled Fab of 20A4; for the crystal the Fab was made from 68F2 mAb with papain; also called 68F2 Fab
